This is an account of results in publication PMC4058633 (Nature protocols, 2013).

This data set concerns the molecule itself. Briefly: native MS.

B1: pentameric ligand-gated ion channel of Erwinia chrysanthemi (ELIC) (natural protein)
chain: APADNAADARPVDVSVSIFINKIYGVNTLEQTYKVDGYIVAQWTGKPRKTPGDKPLIVENTQIERWINNGLWVPALEFINVVGSPDTGNKRLMLFPDGRVIYNARFLGSFSNDMDFRLFPFDRQQFVLELEPFSYNNQQLRFSDIQVYTENIDNEEIDEWWIRKASTHISDIRYDHLSSVQPNQNEFSRITVRIDAVRNPSYYLWSFILPLGLIIAASWSVFWLESFSERLQTSFTLMLTVVAYAFYTSNILPRLPYTTVIDQMIIAGYGSIFAAILLIIFAHHRQAMGVEDDLLIQRCRLAFPLGFLAIGCVLVIRGITL
As for B1, the stoichiometry N (in general, a count of units in the complex or per binding partner) came to 5.
